The results in this text go back to US20160152686A1.

Test [1] has as its target human serum albumin (human) (UniProt P02768). The test is described as follows: SPR, affinity to HSA.
In test [2] the target is VEGFR2 as engaged in the VEGF hBa/F3 proliferation assay. The test is described as follows: cell-based or functional assay.

pKd: −log10 of the molar value.

human serum albumin (human), sequence (P02768 25-609): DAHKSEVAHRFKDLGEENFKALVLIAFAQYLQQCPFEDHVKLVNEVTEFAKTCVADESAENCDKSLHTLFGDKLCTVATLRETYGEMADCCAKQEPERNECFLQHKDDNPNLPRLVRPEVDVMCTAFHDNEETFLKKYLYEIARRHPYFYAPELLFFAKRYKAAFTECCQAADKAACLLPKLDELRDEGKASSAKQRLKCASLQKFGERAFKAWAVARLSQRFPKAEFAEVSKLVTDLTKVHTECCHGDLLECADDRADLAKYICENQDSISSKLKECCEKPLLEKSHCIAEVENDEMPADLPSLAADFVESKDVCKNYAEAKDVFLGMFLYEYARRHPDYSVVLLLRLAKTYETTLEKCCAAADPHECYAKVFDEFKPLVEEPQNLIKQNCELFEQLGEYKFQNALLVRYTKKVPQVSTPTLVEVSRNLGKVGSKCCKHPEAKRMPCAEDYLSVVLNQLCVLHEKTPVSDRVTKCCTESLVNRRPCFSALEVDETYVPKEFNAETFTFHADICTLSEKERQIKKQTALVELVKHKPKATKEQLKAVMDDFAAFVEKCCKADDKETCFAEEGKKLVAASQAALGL

Consider ABD (alone; column 'ABD' of Table 6), for which the pKd in test [1] was 8.59 to 8.80.

On to “CT-322 (C7FL lacking the 8 N-terminal amino acids and linked to PEG) (designed binder)”, for which, in test [2], the IC50, VEGF hBa/F3 proliferation assay came to 7.53; the IC50, VEGF hBa/F3 proliferation assay, with HSA was 8.85; the Rel Pot (C7FL), VEGF hBa/F3 proliferation assay was found to be 0.62; the Rel Pot (C7FL), VEGF hBa/F3 proliferation assay, with HSA is 0.53.

Broadly, the pKd is −log10 of the Kd, conventionally taken in molar units. Low readings indicate a large Kd, high ones a small Kd.
